In patent publication US12570711B2, “Platforms for co-stimulation, novel car designs and other enhancements for adoptive cellular therapy” (Angeles Therapeutics, Inc., priority 2017, dated 2026):

B1: mNEMO-K270A: mouse NEMO-K270A mutant, known to activate NF-κB constitutively (protein)
chain: MNKHPWKNQLSETVQPSGGPAEDQDMLGEESSLGKPAMLHLPSEQGTPETLQRCLEENQELRDAIRQSNQMLRERCEELLHFQVSQREEKEFLMCKFQEARKLVERLSLEKLDLRSQREQALKELEQLKKCQQQMAEDKASVKAQVTSLLGELQESQSRLEAATKDRQALEGRIRAVSEQVRQLESEREVLQQQHSVQVDQLRMQNQSVEAALRMERQAASEEKRKLAQLQAAYHQLFQDYDSHIKSSKGMQLEDLRQQLQQAEEALVAAQELIDKLKEEAEQHKIVMETVPVLKAQADIYKADFQAERHAREKLVEKKEYLQEQLEQLQREFNKLKVGCHESARIEDMRKRHVETPQPPLLPAPAHHSFHLALSNQRRSPPEEPPDFCCPKCQYQAPDMDTLQIHVMECIE
B2: hNEMO-K277A-DeltaV249-K255: mutant lacking aminoacid residues V249-K255 of human NEMO and carrying the K277A mutation (protein)
chain: MNRHLWKSQLCEMVQPSGGPAADQDVLGEESPLGKPAMLHLPSEQGAPETLQRCLEENQELRDAIRQSNQILRERCEELLHFQASQREEKEFLMCKFQEARKLVERLGLEKLDLKRQKEQALREVEHLKRCQQQMAEDKASVKAQVTSLLGELQESQSRLEAATKECQALEGRARAASEQARQLESEREALQQQHSVQVDQLRMQGQSVEAALRMERQAASEEKRKLAQLQVAYHQLFQEYDNHIKSSRGMQLEDLKQQLQQAEEALVAAQEVIDKLKEEAEQHKIVMETVPVLKAQADIYKADFQAERQAREKLAEKKELLQEQLEQLQREYSKLKASCQESARIEDMRKRHVEVSQAPLPPAPAYLSSPLALPSQRRSPPEEPPDFCCPKCQYQAPDMDTLQIHVMECIE
B3: IKK2-S177E-S181E: constitutive active mutant of IKKβ/IKK2 (protein)
chain: MSWSPSLTTQTCGAWEMKERLGTGGFGNVIRWHNQETGEQIAIKQCRQELSPRNRERWCLEIQIMRRLTHPNVVAARDVPEGMQNLAPNDLPLLAMEYCQGGDLRKYLNQFENCCGLREGAILTLLSDIASALRYLHENRIIHRDLKPENIVLQQGEQRLIHKIIDLGYAKELDQGELCTEFVGTLQYLAPELLEQQKYTVTVDYWSFGTLAFECITGFRPFLPNWQPVQWHSKVRQKSEVDIVVSEDLNGTVKFSSSLPYPNNLNSVLAERLEKWLQLMLMWHPRQRGTDPTYGPNGCFKALDDILNLKLVHILNMVTGTIHTYPVTEDESLQSLKARIQQDTGIPEEDQELLQEAGLALIPDKPATQCISDGKLNEGHTLDMDLVFLFDNSKITYETQISPRPQPESVSCILQEPKRNLAFFQLRKVWGQVWHSIQTLKEDCNRLQQGQRAAMMNLLRNNSCLSKMKNSMASMSQQLKAKLDFFKTSIQIDLEKYSEQTEFGITSDKLLLAWREMEQAVELCGRENEVKLLVERMMALQTDIVDLQRSPMGRKQGGTLDDLEEQARELYRRLREKPRDQRTEGDSQEMVRLLLQAIQSFEKKVRVIYTQLSKTVVCKQKALELLPKVEEVVSLMNEDEKTVVRLQEKRQKELWNLLKIACSKVRGPVSGSPDSMNASRLSQPGQLMSQPSTASNSLPEPAKKSEELVAEAHNLCTLLENAIQDTVREQDQSFTALDWSWLQTEEEEHSCLEQAS
B4: IKK1-S176E-S180E: constitutive active mutant of IKKa/IKK1 (protein)
chain: MERPPGLRPGAGGPWEMRERLGTGGFGNVCLYQHRELDLKIAIKSCRLELSTKNRERWCHEIQIMKKLNHANVVKACDVPEELNILIHDVPLLAMEYCSGGDLRKLLNKPENCCGLKESQILSLLSDIGSGIRYLHENKIIHRDLKPENIVLQDVGGKIIHKIIDLGYAKDVDQGELCTEFVGTLQYLAPELFENKPYTATVDYWSFGTMVFECIAGYRPFLHHLQPFTWHEKIKKKDPKCIFACEEMSGEVRFSSHLPQPNSLCSLIVEPMENWLQLMLNWDPQQRGGPVDLTLKQPRCFVLMDHILNLKIVHILNMTSAKIISFLLPPDESLHSLQSRIERETGINTGSQELLSETGISLDPRKPASQCVLDGVRGCDSYMVYLFDKSKTVYEGPFASRSLSDCVNYIVQDSKIQLPIIQLRKVWAEAVHYVSGLKEDYSRLFQGQRAAMLSLLRYNANLTKMKNTLISASQQLKAKLEFFHKSIQLDLERYSEQMTYGISSEKMLKAWKEMEEKAIHYAEVGVIGYLEDQIMSLHAEIMGLQKSPYGRRQGDLMESLEQRAIDLYKQLKHRPSDHSYSDSTEMVKIIVHTVQSQDRVLKELFGHLSKLLGCKQKIIDLLPKVEVALSNIKEADNTVMFMQGKRQKEIWHLLKIACTQSSARSLVGSSLEGAVTPQTSAWLPPTSAEHDHSLSCVVTPQDGETSAQMIEENLNCLGHLSTIIHEANEEQGNSMMNLDWSWLTE

What was measured:
[1] = system: bone marrow derived dendritic cells (DC); experiment: Bone marrow derived dendritic cells expressing selective NF-κB activators: cytokine production, antigen presentation, immune response; type: cell-based; details: compared to control DC
Source text: The disclosure further provides that expression of a selective NF-κB activator can be used to improve the cytokine secretion, antigen presentation and immune response generated by antigen presenting cells, including dendritic cells. The disclosure further provides a method of improving the efficacy of vaccine, including cancer vaccines, by expression of a selective NF-κB activator in the antigen presenting cells ex vivo or in vivo. In one embodiment, the use of selective NF-κB activators increase cytokine production (e.g., TNFα) by antigen presenting cells (e.g., dendritic cells) by more than at least 15%.

NF-κB = experiment: NF-κB-Luciferase reporter assay in transfected 293FT cells (normalized to RSV-LacZ); type: cell-based; details: NF-κB-Luciferase plus RSV-LacZ reporter
Method: The different constructs were transfected in 293FT cells along with an NF-κB-Luciferase reporeter construct and a RSV-LacZ (normalization control) reporter construct and tested for their ability to activate NF-κB using assay described previously.
The constructs were transfected into 293FT cells along with an NF-κB-Luciferase reporeter construct and a RSV-LacZ reporter construct. Approximately 8 hours, post-transfection, cells were left untreated or treated with AP20187 (100 nM). After approximately 72 hours, cell lysates were prepared and analyzed for NF-κB luciferase and LacZ activities as described previously. NF-κB-Luc activity was normalized for LacZ activity to control for difference in transfection efficiency.

BM-derived DCs = experiment: Maturation markers on transduced bone marrow-derived dendritic cells by flow cytometry; type: cell-based, mouse; details: for maturation markers CD86, CD40, ICAM-1 and CD80 on DCs: compared to transduced DCs in the control vector group; for retention of CD86 on transduced DCs: culture
Method: Transduction of DCs and flow cytometry. Murine bone marrow-derived Dendritic cells (DCs) are prepared as previously described. Immature DCs are transduced on day 4 at an MOT of 20 with lentiviral vectors as described (Rowe H M et al, Molecular Therapy, 13, 2, 2006) and fed every 4 days with fresh medium containing granulocyte-macrophage colony-stimulating factor (50 ng/ml; from Peprotech). On day 5 posttransduction, DCs are harvested, washed, and blocked for Fc receptors before surface staining for maturation markers with the following biotin-conjugated Abs: anti-CD11c, anti-CD86, and anti-I-Ab (MHC class II) (all from BD Pharmingen); anti-CD40 (from Serotec); and anti-CD80, anti-ICAM-1, and anti-Kb (MHC class I) (all from eBioscience). A hamster isotype control Ab (biotin conjugated) is purchased from BD Pharmingen. Abs are then labeled with streptavidin RPE Cy-5 2o reagent (DakoCytomation) before flow cytometry. Lipopolysaccharide (LPS) (50 ng/ml) (Sigma) is added to untransduced DCs and left overnight as a positive control for maturation. Zymosan A (10 μg/ml) treatment (for 30 min at 37° C.) is used as a control for ERK activation.

EG7.OVA tumor cells = experiment: EG7.OVA tumor therapy in C57BL/6 mice; type: in vivo, mouse; details: transduced DC injection or direct lentivector injection after lethal dose of EG7.OVA
Method: Tumor therapy. EG7.OVA tumor cells are grown in RPMI plus 0.4 mg/ml G418 (Invitrogen). C57BL/6 mice are challenged with 2×10^6 tumor cells injected s.c. into the flank and then vaccinated.
Mice are inoculated with a lethal dose of EG7.OVA tumor cells before vaccinating them either with transduced DCs or with the human NEMO-K277A-, human NEMO-K277A-deltaV249-K255-, mouse NEMO-K270A- and IKK2-S177E-S181E-vectors directly. All mice are shown to develop tumors.

lymph node DCs = experiment: Lymph node dendritic cells after subcutaneous lentivector injection; type: in vivo, mouse; details: s.c. lentivector injection; compared to control vector-injected animals
Method: DC purification from lymph nodes. C57/BL6 mice (Harlan) are injected subcutaneously (s.c.) at the base of the tail with 1×10^8 infectious units (i.u.) lentivector. Six days later, lymph nodes (para-aortical and inguinal) are harvested (cells from mice in each group were pooled), incubated with collagenase CLS-4 (Worthington), and mashed to obtain single-cell suspensions. Fc receptors are blocked before CD11c-positive cells are selected using MACS beads (Miltenyi Biotec).
Following s.c. lentivector injection, transduced DCs are detected in the draining lymph nodes.

Row | Molecule | cytokine production, antigen presentation and immune response of DC [1] | activation of NF-κB (NF-κB) | maturation markers CD86, CD40, ICAM-1 and CD80 on DCs (BM-derived DCs) | retention of CD86 on transduced DCs (BM-derived DCs) | number of tumor-free mice (EG7.OVA tumor cells) | CD86 on lymph node DCs (lymph node DCs)
1 | K13-opt: vFLIP K13 encoded by human codon optimized nucleic acid sequence | superior cytokine production, antigen presentation, and immune response |  |  |  |  | 
2 | hNEMO-K277A: human NEMO mutant K277A, constitutively active selective NF-κB activator used as accessory module | superior cytokine production, antigen presentation, and immune response | strong activation | upregulated | retain their upregulated CD86 for several weeks in culture | higher than that in the control group | upregulation of CD86
3 | hNEMO-K277G: hNEMO mutant in which Lys (K) at residue 277 is replaced by G |  | weak activation |  |  |  | 
4 | hNEMO-K277I: hNEMO mutant in which Lys (K) at residue 277 is replaced by I |  | weak activation |  |  |  | 
5 | hNEMO-K277L: hNEMO mutant K277L |  | NF-κB activation |  |  |  | 
6 | B1 | superior cytokine production, antigen presentation, and immune response | strong activation | upregulated | retain their upregulated CD86 for several weeks in culture | higher than that in the control group | upregulation of CD86
7 | B2 | superior cytokine production, antigen presentation, and immune response | NF-κB activation | upregulated | retain their upregulated CD86 for several weeks in culture | higher than that in the control group | upregulation of CD86
8 | B3 | superior cytokine production, antigen presentation, and immune response |  | upregulated | retain their upregulated CD86 for several weeks in culture | higher than that in the control group | upregulation of CD86
9 | B4 | superior cytokine production, antigen presentation, and immune response |  |  |  |  | 
